Read-outs that look alike come from different tables or passages of the source.
B1: VIB9600, humanised effector-null anti-FcγRIIA antibody (antibody, V domains shown)
VH: QVQLVQSGAEVKKPGASVKVSCKASGYTFTNYGMNWVRQAPGQRLEWMGWLNTYTGESWYPDDFKGRVTITRDTSASTAYMELSSLRSEDTAVYYCARGDYGYDDPLDYWGQGTLVTVSS
VL: DIVMTQSPLSLPVTPGEPASISCRSSKSLLHTNQNTYLHWFLQKPGQSPQLLIYRMSVLASGVPDRFSGSGSGTDFTLKISRVEAEDVGVYYCMQHLEYPLTFGQGTKLEIK

Tests used:
[1] = molecular target: Human FcγRIIA 131H (Homo sapiens, FCGR2A 131H allele) (UniProt P12318); assay: SPR
Sequence of Human FcγRIIA 131H (Homo sapiens, FCGR2A 131H allele) (P12318 34-317): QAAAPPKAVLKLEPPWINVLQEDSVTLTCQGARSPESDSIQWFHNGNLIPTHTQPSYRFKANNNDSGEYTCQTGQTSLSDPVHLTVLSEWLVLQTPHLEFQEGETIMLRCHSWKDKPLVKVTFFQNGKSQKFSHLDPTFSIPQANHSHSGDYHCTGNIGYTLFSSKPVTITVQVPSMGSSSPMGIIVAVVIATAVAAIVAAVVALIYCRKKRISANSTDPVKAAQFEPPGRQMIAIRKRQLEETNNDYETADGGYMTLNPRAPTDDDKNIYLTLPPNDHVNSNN

[2] = molecular target: Human FcγRIIA 131R (Homo sapiens, FCGR2A 131R allele) (UniProt P12318); assay: SPR
Sequence of Human FcγRIIA 131R (Homo sapiens, FCGR2A 131R allele) (P12318 whole entry, looked up, tested part not stated): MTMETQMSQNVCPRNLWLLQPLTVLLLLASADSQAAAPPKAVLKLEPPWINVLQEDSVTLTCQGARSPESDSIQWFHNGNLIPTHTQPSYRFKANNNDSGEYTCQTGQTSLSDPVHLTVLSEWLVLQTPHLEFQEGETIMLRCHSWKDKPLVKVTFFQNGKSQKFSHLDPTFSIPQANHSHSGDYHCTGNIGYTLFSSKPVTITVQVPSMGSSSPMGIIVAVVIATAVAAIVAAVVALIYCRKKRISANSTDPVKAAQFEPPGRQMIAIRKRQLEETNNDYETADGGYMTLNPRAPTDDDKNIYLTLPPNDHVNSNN

[3] = molecular target: T1, FcγRIIA on human neutrophils (Homo sapiens, endogenous on …, UniProt P12318); assay: flow cytometry on cells
T1 sequence (P12318 34-317): as the sequence (P12318 34-317) above

[4] = molecular target: T1, FcγRIIA on human neutrophils; assay: flow cytometry on cells; remark: listed apart in the source

Molecule | Kd [1] [nM] | koff [1] [s⁻¹] | Kd [2] [nM] | koff [2] [s⁻¹] | kon [2] [M⁻¹ s⁻¹] | kon [1] [M⁻¹ s⁻¹] | EC50 [3] [nM] | EC50 [4] [nM]
VIB9600 Fab | 0.13 | 0.000337 | 0.15 | 0.000735 | 4.98e+06 |  |  | 
IV.3 Fab | 0.22 | 0.000681 | 0.22 | 0.00129 | 5.95e+06 | 3.03e+06 |  | 
B1 |  |  |  |  |  |  | 3.35 | 0.03

From PMC6352406 (Annals of the Rheumatic Diseases, 2018)
